# Reference: patent publication US20220324969A1 (MYTHIC THERAPEUTICS, published 2022)
# Residue numbers refer to the chain shown, from its start. In names and notes the source's numbering stands.
# B1: MYT1243 (antibody, V domains shown)
# VH: QVQLQQPGAEVVKPGASVKMSCKASGYTFTSYYIHWIKQTPGQGLEWVGVIYPGNDDISYNQKFQGKATLTADKSSTTAYMQLSSLTSEDSAVYYCAREHRLRYFDVWGQGTTVTVSS
# VL: EIVLTQSPGSLAVSPGERVTMSCKSSQSVFFSSSQKNYLAWYQQIPGQSPRLLIYWASTRESGVPDRFTGSGSGTDFTLTISSVQPEDLAIYYCHQYLSSRTFGQGTKLEIK
# notes: IgG; IMGN779 VH variant #31 (V100H)
# B2: MYT1247 (antibody, V domains shown)
# VH: B1 VH with H100V, Y104H
# VL: B1 VL
# notes: IgG; IMGN779 VH variant #35 (Y104H)
# B3: MYT2643 (antibody, V domains shown)
# VH: B1 VH with H100V
# VL: B1 VL with Y97H
# notes: IgG; IMGN779 VL variant #27 (Y97H)
# B4: MYT2636 (antibody, V domains shown)
# VH: B1 VH with H100V
# VL: B1 VL with S58H
# notes: IgG; IMGN779 VL variant #20 (S58H)
# B5: MYT2642 (antibody, V domains shown)
# VH: B1 VH with H100V
# VL: B1 VL with Q96H
# notes: IgG; IMGN779 VL variant #26 (Q96H)
# B6: MYT1246 (antibody, V domains shown)
# VH: B1 VH with H100V, R103H
# VL: B1 VL
# notes: IgG; IMGN779 VH variant #34 (R103H)
# B7: MYT1250 (antibody, V domains shown)
# VH: B1 VH with H100V, V107H
# VL: B1 VL
# notes: IgG; IMGN779 VH variant #38 (V107H)
# B8: MYT2617 (antibody, V domains shown)
# VH: B1 VH with H100V
# VL: B1 VL with K24H
# notes: IgG; IMGN779 VL variant #1 (K24H)
# B9: MYT2631 (antibody, V domains shown)
# VH: B1 VH with H100V
# VL: B1 VL with Y38H
# notes: IgG; IMGN779 VL variant #15 (Y38H)
# B10: MYT2628 (antibody, V domains shown)
# VH: B1 VH with H100V
# VL: B1 VL with Q35H
# notes: IgG; IMGN779 VL variant #12 (Q35H)
# B11: MYT2637 (antibody, V domains shown)
# VH: B1 VH with H100V
# VL: B1 VL with T59H
# notes: IgG; IMGN779 VL variant #21 (T59H)
# B12: MYT2629 (antibody, V domains shown)
# VH: B1 VH with H100V
# VL: B1 VL with K36H
# notes: IgG; IMGN779 VL variant #13 (K36H)
# B13: MYT2627 (antibody, V domains shown)
# VH: B1 VH with H100V
# VL: B1 VL with S34H
# notes: IgG; IMGN779 VL variant #11 (S34H)
# B14: MYT1244 (antibody, V domains shown)
# VH: B1 VH with H100V, R101H
# VL: B1 VL
# notes: IgG; IMGN779 VH variant #32 (R101H)
# B15: MYT2625 (antibody, V domains shown)
# VH: B1 VH with H100V
# VL: B1 VL with S32H
# notes: IgG; IMGN779 VL variant #9 (S32H)
# B16: MYT2622 (antibody, V domains shown)
# VH: B1 VH with H100V
# VL: B1 VL with V29H
# notes: IgG; IMGN779 VL variant #6 (V29H)
# B17: MYT2641 (antibody, V domains shown)
# VH: B1 VH with H100V
# VL: B1 VL with H95A
# notes: IgG; IMGN779 VL variant #25 (H95A)
# B18: MYT1248 (antibody, V domains shown)
# VH: B1 VH with H100V, F105H
# VL: B1 VL
# notes: IgG; IMGN779 VH variant #36 (F105H)
# B19: MYT2619 (antibody, V domains shown)
# VH: B1 VH with H100V
# VL: B1 VL with S26H
# notes: IgG; IMGN779 VL variant #3 (S26H)
# B20: MYT2624 (antibody, V domains shown)
# VH: B1 VH with H100V
# VL: B1 VL with F31H
# notes: IgG; IMGN779 VL variant #8 (F31H)
# B21: MYT2618 (antibody, V domains shown)
# VH: B1 VH with H100V
# VL: B1 VL with S25H
# notes: IgG; IMGN779 VL variant #2 (S25H)
# B22: MYT2630 (antibody, V domains shown)
# VH: B1 VH with H100V
# VL: B1 VL with N37H
# notes: IgG; IMGN779 VL variant #14 (N37H)
# B23: MYT2640 (antibody, V domains shown)
# VH: B1 VH with H100V
# VL: B1 VL with S62H
# notes: IgG; IMGN779 VL variant #24 (S62H)
# B24: MYT2638 (antibody, V domains shown)
# VH: B1 VH with H100V
# VL: B1 VL with R60H
# notes: IgG; IMGN779 VL variant #22 (R60H)
# B25: MYT2623 (antibody, V domains shown)
# VH: B1 VH with H100V
# VL: B1 VL with F30H
# notes: IgG; IMGN779 VL variant #7 (F30H)
# B26: MYT2626 (antibody, V domains shown)
# VH: B1 VH with H100V
# VL: B1 VL with S33H
# notes: IgG; IMGN779 VL variant #10 (S33H)
# B27: MYT2620 (antibody, V domains shown)
# VH: B1 VH with H100V
# VL: B1 VL with Q27H
# notes: IgG; IMGN779 VL variant #4 (Q27H)
# B28: MYT2635 (antibody, V domains shown)
# VH: B1 VH with H100V
# VL: B1 VL with A57H
# notes: IgG; IMGN779 VL variant #19 (A57H)
# B29: MYT2621 (antibody, V domains shown)
# VH: B1 VH with H100V
# VL: B1 VL with S28H
# notes: IgG; IMGN779 VL variant #5 (S28H)
# B30: MYT2639 (antibody, V domains shown)
# VH: B1 VH with H100V
# VL: B1 VL with E61H
# notes: IgG; IMGN779 VL variant #23 (E61H)
# B31: MYT2634 (antibody, V domains shown)
# VH: B1 VH with H100V
# VL: B1 VL with W56H
# notes: IgG; IMGN779 VL variant #18 (W56H)
# B32: MYT2632 (antibody, V domains shown)
# VH: B1 VH with H100V
# VL: B1 VL with L39H
# notes: IgG; IMGN779 VL variant #16 (L39H)
# B33: MYT1245 (antibody, V domains shown)
# VH: B1 VH with H100V, L102H
# VL: B1 VL
# notes: IgG; IMGN779 VH variant #33 (L102H)
# Target: CD33 (Sino Biological, Cat #12238-H08H) (UniProt P20138 18-259)
# Sequence (P20138 18-259 limits assumed): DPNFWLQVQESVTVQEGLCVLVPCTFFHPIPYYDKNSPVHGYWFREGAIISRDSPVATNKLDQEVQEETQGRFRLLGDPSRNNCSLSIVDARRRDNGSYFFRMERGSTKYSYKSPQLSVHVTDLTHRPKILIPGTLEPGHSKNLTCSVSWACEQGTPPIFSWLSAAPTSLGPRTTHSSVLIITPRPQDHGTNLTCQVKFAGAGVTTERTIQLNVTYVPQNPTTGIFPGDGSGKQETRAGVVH
# Assay: BLI, IgG captured on anti-human Fc sensor, 50 nM CD33, pH 7.4 vs pH 5.4
row,binding result,Binder
1,binds,B1
2,binds,B2
3,binds,B3
4,binds,B4
5,binds,B5
6,binds,B6
7,binds,B7
8,binds,B8
9,binds,B9
10,binds,B10
11,binds,B11
12,binds,B12
13,binds,B13
14,binds,B14
15,binds,B15
16,binds,B16
17,binds,B17

row,binding result,Binder
1,binds,B18
2,binds,B19
3,binds,B20
4,binds,B21
5,binds,B22
6,binds,B23
7,binds,B24
8,binds,B25
9,binds,B26
10,binds,B27
11,binds,B28
12,binds,B29
13,binds,B30
14,binds,B31
15,binds,B32
16,binds,B33
